Blank lines part the entries; values can stand above or below the binder they belong to.
Tests used:
[1] = target: T1, β-barrel assembly machinery (BAM) complex, BamABCDE (E. coli, UniProt P0A940 21-810; P77774 20-392; P0A903 25-344; P0AC02 20-245; P0A937 20-113); assay: MST; BAM reconstituted in proteoliposomes of E. coli polar lipid extract titrated (25 µM–1 nM) against 400 nM Alexa Fluor 488-labelled SurA variant; TBS pH 8.0, 25 °C; 1:1 quadratic binding model; details: both partners purified
BAM complex (BamABCDE) = BAM complex (BamABCDE) (E. coli, UniProt P0A940 21-810; P77774 20-392; P0A903 25-344; P0AC02 20-245; P0A937 20-113); assay: MST; 400 nM Alexa Fluor 488-labelled SurA variant, BAM complex titrated 25 µM-1 nM in proteoliposomes of E. coli polar lipid extract, 150 mM NaCl, 20 mM Tris-HCl, pH 8.0, 25 °C; BAM concentration taken as 50 % of the total for fitting; 1:1 quadratic binding model; details: both partners purified
[2] = target: T1, β-barrel assembly machinery (BAM) …; assay: cell-based or functional assay
[3] = target: T1, β-barrel assembly machinery (BAM) …; assay: MST; BAM in DDM micelles titrated (1.6 nM–52 μM) against 400 nM Alexa Fluor 488-labelled Cys-SurA variant; 0.02% (v/v) DDM, 150 mM NaCl, 20 mM Tris–HCl, pH 8, 25 °C; 1:1 quadratic binding model; details: both partners purified

binding result [1]: binds
B1: Alexa Fluor 488-labelled Cys-SurA-∆P2 (domain or fragment)
chain: CAPQVVDKVAAVVNNGVVLESDVDGLMQSVKLNAAQARQQLPDDATLRHQIMERLIMDQIILQMGQKMGVKISDEQLDQAIANIAKQNNMTLDQMRSRLAYDGLNYNTYRNQIRKEMIISEVRNNEVRRRITILPQEVESLAQQVGNQNDASTELNLSHILIPLPENPTSDQVNEAESQARAIVDQARNGADFGKLAIAHSADQQALNGGQMGWGRIQELPGIFAQALSTAKKGDIVGPIRSGVGFHILKVNDLRGESKNIDAAQKDRAYRMLMNRKFSEEAASWMQEQRASAYVKILSN
modifications: Alexa Fluor 488 on the added N-terminal cysteine (maleimide)
notes: cysteine residue added immediately following the TEV cleavage site; numbers are the gene numbering (including the signal peptide); A G of the TEV site probably precedes the added cysteine after cleavage (surmised); not shown: His6, N-terminal, cleaved

Kd (BAM complex (BamABCDE)): 1200 nM
B2: Alexa Fluor 488-labelled Cys-SurA-∆P2 (domain or fragment)
chain: GCAPQVVDKVAAVVNNGVVLESDVDGLMQSVKLNAAQARQQLPDDATLRHQIMERLIMDQIILQMGQKMGVKISDEQLDQAIANIAKQNNMTLDQMRSRLAYDGLNYNTYRNQIRKEMIISEVRNNEVRRRITILPQEVESLAQQVGNQNDASTELNLSHILIPLPENPTSDQVNEAESQARAIVDQARNGADFGKLAIAHSADQQALNGGQMGWGRIQELPGIFAQALSTAKKGDIVGPIRSGVGFHILKVNDLRGESKNIDAAQKDRAYRMLMNRKFSEEAASWMQEQRASAYVKILSN
modifications: Alexa Fluor 488 (C5 maleimide) on the added N-terminal cysteine
notes: glycine left after TEV cleavage (ENLYFQG) and the cysteine added immediately following the TEV cleavage site; the order G-C is worked out from the text; gene numbering including the signal peptide; not shown: His6, N-terminal, cleaved

rate of BAM-mediated folding of tOmpA into proteoliposomes (cold SDS–PAGE), without SurA-WT against with 10 μM SurA-WT [2]: ~6 fold
B3: SurA-WT (wild-type SurA, residues 21-428, His-tag cleaved) (natural protein)
chain: APQVVDKVAAVVNNGVVLESDVDGLMQSVKLNAAQARQQLPDDATLRHQIMERLIMDQIILQMGQKMGVKISDEQLDQAIANIAKQNNMTLDQMRSRLAYDGLNYNTYRNQIRKEMIISEVRNNEVRRRITILPQEVESLAQQVGNQNDASTELNLSHILIPLPENPTSDQVNEAESQARAIVDQARNGADFGKLAIAHSADQQALNGGQMGWGRIQELPGIFAQALSTAKKGDIVGPIRSGVGFHILKVNDLRGESKNISVTEVHARHILLKPSPIMTDEQARVKLEQIAADIKSGKTTFAAAAKEFSQDPGSANQGGDLGWATPDIFDPAFRDALTRLNKGQMSAPVHSSFGWHLIELLDTRNVDKTDAAQKDRAYRMLMNRKFSEEAASWMQEQRASAYVKILSN

rate of BAM-catalysed folding of tOmpA into proteoliposomes (cold SDS–PAGE), with SurA-∆P2 against SurA-WT [2]: ~3 fold
B4: SurA-∆P2 (SurA 21-428 without residues 281-389, His-tag cleaved) (domain or fragment)
chain: APQVVDKVAAVVNNGVVLESDVDGLMQSVKLNAAQARQQLPDDATLRHQIMERLIMDQIILQMGQKMGVKISDEQLDQAIANIAKQNNMTLDQMRSRLAYDGLNYNTYRNQIRKEMIISEVRNNEVRRRITILPQEVESLAQQVGNQNDASTELNLSHILIPLPENPTSDQVNEAESQARAIVDQARNGADFGKLAIAHSADQQALNGGQMGWGRIQELPGIFAQALSTAKKGDIVGPIRSGVGFHILKVNDLRGESKNIDAAQKDRAYRMLMNRKFSEEAASWMQEQRASAYVKILSN

Kd (BAM complex (BamABCDE)): 600 nM
B5: Alexa Fluor 488-labelled Cys-SurA-∆P1 (domain or fragment)
chain: GCAPQVVDKVAAVVNNGVVLESDVDGLMQSVKLNAAQARQQLPDDATLRHQIMERLIMDQIILQMGQKMGVKISDEQLDQAIANIAKQNNMTLDQMRSRLAYDGLNYNTYRNQIRKEMIISEVRNNEVRRRITILPQEVESLAQQVGNQNDASSVTEVHARHILLKPSPIMTDEQARVKLEQIAADIKSGKTTFAAAAKEFSQDPGSANQGGDLGWATPDIFDPAFRDALTRLNKGQMSAPVHSSFGWHLIELLDTRNVDKTDAAQKDRAYRMLMNRKFSEEAASWMQEQRASAYVKILSN
modifications: Alexa Fluor 488 (C5 maleimide) on the added N-terminal cysteine
notes: as for B2

binding result [1]: binds
B6: Alexa Fluor 488-labelled Cys-SurA-∆P1 (domain or fragment)
chain: CAPQVVDKVAAVVNNGVVLESDVDGLMQSVKLNAAQARQQLPDDATLRHQIMERLIMDQIILQMGQKMGVKISDEQLDQAIANIAKQNNMTLDQMRSRLAYDGLNYNTYRNQIRKEMIISEVRNNEVRRRITILPQEVESLAQQVGNQNDASSVTEVHARHILLKPSPIMTDEQARVKLEQIAADIKSGKTTFAAAAKEFSQDPGSANQGGDLGWATPDIFDPAFRDALTRLNKGQMSAPVHSSFGWHLIELLDTRNVDKTDAAQKDRAYRMLMNRKFSEEAASWMQEQRASAYVKILSN
modifications: Alexa Fluor 488 on the added N-terminal cysteine (maleimide)
notes: cysteine residue added immediately following the TEV cleavage site; numbers are the gene numbering (including the signal peptide); A G of the TEV site probably precedes the added cysteine after cleavage (surmised); also called SurA-ΔP1; not shown: His6, N-terminal, cleaved

Kd (BAM complex (BamABCDE)): 600 nM
B7: Alexa Fluor 488-labelled Cys-SurA-WT (natural protein)
chain: GCAPQVVDKVAAVVNNGVVLESDVDGLMQSVKLNAAQARQQLPDDATLRHQIMERLIMDQIILQMGQKMGVKISDEQLDQAIANIAKQNNMTLDQMRSRLAYDGLNYNTYRNQIRKEMIISEVRNNEVRRRITILPQEVESLAQQVGNQNDASTELNLSHILIPLPENPTSDQVNEAESQARAIVDQARNGADFGKLAIAHSADQQALNGGQMGWGRIQELPGIFAQALSTAKKGDIVGPIRSGVGFHILKVNDLRGESKNISVTEVHARHILLKPSPIMTDEQARVKLEQIAADIKSGKTTFAAAAKEFSQDPGSANQGGDLGWATPDIFDPAFRDALTRLNKGQMSAPVHSSFGWHLIELLDTRNVDKTDAAQKDRAYRMLMNRKFSEEAASWMQEQRASAYVKILSN
modifications: Alexa Fluor 488 (C5 maleimide) on the added N-terminal cysteine
notes: as for B2

Kd (BAM complex (BamABCDE)): 700 nM
B8: Alexa Fluor 488-labelled Cys-SurA-core (domain or fragment)
chain: GCAPQVVDKVAAVVNNGVVLESDVDGLMQSVKLNAAQARQQLPDDATLRHQIMERLIMDQIILQMGQKMGVKISDEQLDQAIANIAKQNNMTLDQMRSRLAYDGLNYNTYRNQIRKEMIISEVRNNEVRRRITILPQEVESLAQQVGNQNDASDAAQKDRAYRMLMNRKFSEEAASWMQEQRASAYVKILSN
modifications: Alexa Fluor 488 (C5 maleimide) on the added N-terminal cysteine
notes: as for B2

Kd [3]: 1300 ± 300 nM
B9: Alexa Fluor 488-labelled Cys-SurA-core (domain or fragment)
chain: CAPQVVDKVAAVVNNGVVLESDVDGLMQSVKLNAAQARQQLPDDATLRHQIMERLIMDQIILQMGQKMGVKISDEQLDQAIANIAKQNNMTLDQMRSRLAYDGLNYNTYRNQIRKEMIISEVRNNEVRRRITILPQEVESLAQQVGNQNDASDAAQKDRAYRMLMNRKFSEEAASWMQEQRASAYVKILSN
modifications: Alexa Fluor 488 on the added N-terminal cysteine (maleimide)
notes: as for B1

Kd [3]: 2600 ± 200 nM
B10: Alexa Fluor 488-labelled Cys-SurA-WT (natural protein)
chain: CAPQVVDKVAAVVNNGVVLESDVDGLMQSVKLNAAQARQQLPDDATLRHQIMERLIMDQIILQMGQKMGVKISDEQLDQAIANIAKQNNMTLDQMRSRLAYDGLNYNTYRNQIRKEMIISEVRNNEVRRRITILPQEVESLAQQVGNQNDASTELNLSHILIPLPENPTSDQVNEAESQARAIVDQARNGADFGKLAIAHSADQQALNGGQMGWGRIQELPGIFAQALSTAKKGDIVGPIRSGVGFHILKVNDLRGESKNISVTEVHARHILLKPSPIMTDEQARVKLEQIAADIKSGKTTFAAAAKEFSQDPGSANQGGDLGWATPDIFDPAFRDALTRLNKGQMSAPVHSSFGWHLIELLDTRNVDKTDAAQKDRAYRMLMNRKFSEEAASWMQEQRASAYVKILSN
modifications: Alexa Fluor 488 on the added N-terminal cysteine (maleimide)
notes: cysteine residue added immediately following the TEV cleavage site; numbers are the gene numbering (including the signal peptide); A G of the TEV site probably precedes the added cysteine after cleavage (surmised); also called Alexa Fluor 488-labelled SurA; not shown: His6, N-terminal, cleaved
